Reference: doi:10.1101/2023.12.09.570830

Biological target: UmbC1 (untagged, in the Umb1 particle) (Streptomyces coelicolor A3(2) (endogenous))
Assay: cryo-EM structure

UmbB1 (natural protein)
stoichiometry N: 5
